In test [1] the target is kinesin heavy chain deletion mutant H810 (stop codon after amino acid 810), myc-tagged (rat) (UniProt Q2PQA9). Put plainly: co-IP.
In test [2] the target is taxol-stabilized microtubules (bovine (brain)) (UniProt Q6B856). Put plainly: co-sedimentation.
Chain of UniProt Q6B856 (Q6B856 whole entry, looked up): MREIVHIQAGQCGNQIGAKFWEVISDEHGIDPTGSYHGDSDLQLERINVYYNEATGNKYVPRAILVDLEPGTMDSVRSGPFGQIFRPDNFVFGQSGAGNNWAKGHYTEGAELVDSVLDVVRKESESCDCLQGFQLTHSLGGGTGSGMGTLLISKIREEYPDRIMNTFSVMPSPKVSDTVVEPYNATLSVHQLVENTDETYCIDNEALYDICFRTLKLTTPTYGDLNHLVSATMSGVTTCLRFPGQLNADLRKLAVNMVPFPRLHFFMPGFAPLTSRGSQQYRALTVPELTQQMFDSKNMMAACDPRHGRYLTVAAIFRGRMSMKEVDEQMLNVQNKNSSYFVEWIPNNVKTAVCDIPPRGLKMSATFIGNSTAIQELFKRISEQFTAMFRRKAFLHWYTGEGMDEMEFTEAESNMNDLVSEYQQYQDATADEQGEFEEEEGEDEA

Chain of UniProt Q2PQA9 (Q2PQA9 2-963, stated change not applied): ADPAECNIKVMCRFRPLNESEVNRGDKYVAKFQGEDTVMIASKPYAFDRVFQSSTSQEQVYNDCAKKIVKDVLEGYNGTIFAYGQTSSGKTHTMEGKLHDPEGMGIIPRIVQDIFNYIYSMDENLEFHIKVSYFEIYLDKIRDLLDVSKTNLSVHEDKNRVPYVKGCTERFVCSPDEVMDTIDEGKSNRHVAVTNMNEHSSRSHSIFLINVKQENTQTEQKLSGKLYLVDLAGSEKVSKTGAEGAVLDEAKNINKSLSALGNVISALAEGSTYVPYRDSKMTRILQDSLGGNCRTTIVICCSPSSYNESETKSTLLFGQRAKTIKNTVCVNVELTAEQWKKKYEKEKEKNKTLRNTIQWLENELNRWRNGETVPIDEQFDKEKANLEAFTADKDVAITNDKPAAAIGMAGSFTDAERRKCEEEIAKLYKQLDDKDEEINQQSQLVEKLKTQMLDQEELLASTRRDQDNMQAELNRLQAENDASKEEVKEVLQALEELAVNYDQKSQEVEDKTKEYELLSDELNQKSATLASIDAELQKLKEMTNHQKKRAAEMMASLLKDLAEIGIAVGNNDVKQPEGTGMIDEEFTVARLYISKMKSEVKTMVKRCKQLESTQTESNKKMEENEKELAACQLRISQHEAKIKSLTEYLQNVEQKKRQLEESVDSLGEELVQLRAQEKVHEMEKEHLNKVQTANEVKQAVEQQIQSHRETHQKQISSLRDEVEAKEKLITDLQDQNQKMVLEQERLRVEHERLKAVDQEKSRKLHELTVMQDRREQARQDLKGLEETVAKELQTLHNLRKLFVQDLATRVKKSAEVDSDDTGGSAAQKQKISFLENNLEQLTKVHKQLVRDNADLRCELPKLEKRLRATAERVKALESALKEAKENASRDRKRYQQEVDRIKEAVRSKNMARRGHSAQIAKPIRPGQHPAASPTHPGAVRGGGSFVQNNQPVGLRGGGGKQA

Turning to “kinesin light chain splice form C (rat), HA-tagged (from UniProt P37285 1-560) (natural protein)”, the percent of LC coprecipitated in test [1] was determined as 50%. Substance “HC deletion mutant H810 coexpressed with LC (from UniProt Q2PQA9 1-810; P37285 1-560) (complex)” registered a percent of the HC construct sedimented with MTs in test [2] of 90%. In test [2], “HC coexpressed with the LC deletion mutant L176 (from UniProt Q2PQA9 1-963; P37285 1-176) (complex)” yielded a percent of HC bound to MTs of 50% and a percent of L176 bound to MTs of 20%.

As for “NH2-terminal 420 amino acids of human conventional kinesin heavy chain (from UniProt P33176 1-420) (domain or fragment)”, the tubulin concentration at half-maximal binding in test [2] amounted to 0.15 mM. In test [2], “HC deletion mutant H891 coexpressed with LC (from UniProt Q2PQA9 1-891; P37285 1-560) (complex)” registered a percent of the HC construct sedimented with MTs of 50 to 95%.

The values above are taken from publication PMC2132950.
